Laboratory results from paper PMC13541299.
Values joined by “and” are separate entries in the source; they are usually repeats but may differ in a detail not shown here. Equal values may be shown once.

Target: biotinylated polymerization-blocked yeast αβ-tubulin, LR1 (β: T175R, V179R) (S. cerevisiae) (UniProt P09733)
Experiment: BLI; biotinylated polymerization-blocked tubulin immobilised on Streptavidin (SA) biosensors (OctetR8), dipped into TOG2 at 2.3 to 200 nM; 100 mM PIPES pH 6.9, 10 mM NaCl, 1 mM MgCl2, 1 mM EGTA, 1 mM GTP, 0.1% BSA, 0.005% Triton X-100; association 300 s, dissociation 300 s; 1:1 model; steady-state amplitudes and global kinetic fit

Kd: 8.9 nM and 9.6 nM | koff: 0.03 s⁻¹ | kon: 3.2e+06 M⁻¹ s⁻¹
B1: Stu2-TOG2 (318–560) (domain or fragment)
chain: MLPEETILDKLPKDFQERITSSKWKDRVEALEEFWDSVLSQTKKLKSTSQNYSNLLGIYGHIIQKDANIQAVALAAQSVELICDKLKTPGFSKDYVSLVFTPLLDRTKEKKPSVIEAIRKALLTICKYYDPLASSGRNEDMLKDILEHMKHKTPQIRMECTQLFNASMKEEKDGYSTLQRYLKDEVVPIVIQIVNDTQPAIRTIGFESFAILIKIFGMNTFVKTLEHLDNLKRKKIEETVKTL
